pKd: −log10 of the molar value. One block for each substance: values may come before it.
Key:
[1] = biological target: IL-2 (Homo sapiens) (UniProt P60568); settings: cited from earlier work
[2] = biological target: IL-15 (Homo sapiens) (UniProt P40933); settings: cited from earlier work
[3] = biological target: trimeric IL-15Rα/IL-2Rβ/γc receptor on Kit225 cells (human (endogenous in Kit225)) (UniProt Q13261)

Sequence of UniProt P40933 (P40933 49-162): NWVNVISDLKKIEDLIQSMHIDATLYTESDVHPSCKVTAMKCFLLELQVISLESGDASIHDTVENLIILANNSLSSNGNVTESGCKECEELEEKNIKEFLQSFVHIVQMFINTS
Sequence of UniProt P60568 (P60568 21-153): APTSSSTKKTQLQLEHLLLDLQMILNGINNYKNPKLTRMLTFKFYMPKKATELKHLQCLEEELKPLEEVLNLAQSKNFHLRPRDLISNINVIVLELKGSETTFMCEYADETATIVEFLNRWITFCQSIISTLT

Substance: IL-2Rα (from UniProt P01589)
- pKd [1]: 8.00

Substance: IL-15Rα (from UniProt Q13261)
- pKd [2]: 10.30

- IC50 of inhibition of IL-15- or IL-15D8S-induced Kit225 cell proliferation by increasing NANTIL-15 [3]: < 1 nM
- IC50 of inhibition of IL-15-induced Stat5 phosphorylation in Kit225 cells by increasing NANTIL-15 (blocks IL-15 acting through the trimeric IL-15Rα/IL-2Rβ/γc receptor) [3]: 1 nM
- IC50 of inhibition of IL-15D8S-induced pStat5 signal in Kit225 cells by increasing NANTIL-15 (IL-15D8S signals only through the trimeric receptor) [3]: 1 nM
- plateau of inhibition of IL-15-induced Stat5 phosphorylation in Kit225 cells by increasing NANTIL-15 [3]: 60%
Substance: NANTIL-15 (New ANTagonist of IL-15), human IL-15 L45D-N65K-L69R linked to a human Fc (IgG1) (Fc fusion)

— article PMC9110858
